Results as given in the supplement of paper PMC9170038.

Experiments:
MS2 coat protein [1] = assay: apparent KD of MS2 coat protein; designed switch direction (-1 OFF switch, 1 ON switch): 1; higher = weaker reporter binding; conditions: Eterna round: R98
Protocol: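 RNA-MaP: designed FMN/MS2 RNA switches (84 nt design region) are transcribed on-chip within common flanks and titrated with SNAP-549-labelled MS2 coat protein (about 1-3000 nM) in 100 mM Tris pH 7.5, 80 mM KCl, 4 mM MgCl2, without or with 200 uM FMN. Median apparent KD per design; activation ratio = KD,OFF / KD,ON.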

MS2 coat protein [2] = assay: apparent KD of MS2 coat protein, switch OFF state (with FMN for OFF switches, without FMN for ON switches); designed switch direction (-1 OFF switch, 1 ON switch): 1; higher = weaker reporter binding; conditions: FMN input: 0 or 200 uM; Eterna round: R93 (includes R88 designs)
In short: (§1)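 Designed RNA switches were transcribed on-chip from Illumina sequencing clusters and titrated with SNAP-549-labelled MS2 coat protein in twofold steps from 0.7 or 1.5 nM up to 3 µM. Each step lasted 0.8–1.5 h at first and 10–20 min by the end, in 100 mM Tris-HCl pH 7.5, 80 mM KCl and 4 mM MgCl2, without or with constant ligand. Apparent KD is the median, for each design, of fits to normalised cluster binding curves.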

MS2 coat protein [3] = assay: apparent KD of MS2 coat protein, switch ON state; designed switch direction (-1 OFF switch, 1 ON switch): 1; higher = weaker reporter binding; conditions: FMN input: 0 or 200 uM; Eterna round: R93 (includes R88 designs)
In short: as §1

Row | Sequence | apparent KD of MS2 coat protein (MS2 coat protein [1]; input ligand: FMN 200 uM) [nM] | apparent KD of MS2 coat protein (MS2 coat protein [1]; input ligand: none) [nM] | apparent KD of MS2 coat protein (MS2 coat protein [2]) [nM] | apparent KD of MS2 coat protein (MS2 coat protein [3]) [nM]
1 | UCACUCAAGUUAGGAUAUGGAUCGGAAAACGAUCCAGAAGGAACAUGAAAACAUGAGCAUCAGCCAUGUUCCAGAAACGAGUGA [SameSame 4 - Jieux - Same State NG 1] | 23.6 | – | – | –
2 | UCUGCUAUCGCAGGAUAUUACAUGGGAAAGAAUACAUGAGGAUCACCCAUGUAAAAGAUCAUAAAUAAGAAGGGCGAUAGCAGA [Lame State 7 - Jieux - Same State NG 2] | 116 | 1530 | – | –
3 | ACUGUCGCGUGAGGAUAUGGUCUGCAGUGCUGACCAGAAGGCAUGUCGAUAGACAUGAGGAUCACCCAUGUGGUUAGGGCGGAA [salish99_SSNG1_R02_019] | 194 | 298 | – | –
4 | GUAGCUAUCGCAGGAUAUCCUCAGGCGAAAGCCACAUGAGGAUCACCCAUGUAAAUAAAGAAUUUGGAGAAGGGCGAUAGCUAC [jl-sng2-2.34 Eli mod] | 24.7 | 374 | – | –
5 | GUAGCAUACCGAGGAUAUUCUCCGGAAAACCGGACAUGAGGAUCACCCAUGUGGCGAAAGCCUUGGGAGAAGGCGGAAUGCUAC [Xeinanis 75 29] | 18.6 | 34.4 | – | –
6 | AAAGACAUGGUGUAGGAUAUAUUAAUAGUCACAUGAGGAUCACCCAUGUUCAUAUAUAUGAACGAGUAGAAGGACGAUGAAAAAA [SameState2 Malc#3] | – | – | 205 | 497
7 | AAAAAACAUGAGGAUCACCCAUGUAAUACAACAUCAGGAUAUUGGCUUUACUAUGUAUUACAAGAAGGGAUGAAAA [Same State 1.3c (Same State 1 - Omei 2 )] | – | – | 53.8 | 171
8 | GAAAAACAUGAGGAUCACCCAUGUGGAAAUAUGGAAGGAUAUACAAAGACGAGAGUCAAAGUAGAAGGUCUAAAAG [Mat - Same State 1 - Eli mod - D20] | – | – | 26.3 | 17.3
9 | AAUAUACAUGAGGAUCACCCAUGUUAGGUGGGUCAAGGAUAUCAAUAUAAAUAAAAAACUUGAGAAGGUGAAUAAA [JR_SS001_Sub019] | – | – | 155 | 133
10 | GUAGAACAUGAGGAUCACCCAUGUGAAGACGCAUGAGGAUAUAUAAGUAAAUAGCAUAAGAUAGAAGGCAUGAUAA [JR_SS001_Sub1702] | – | – | 113 | 76
11 | UGGAGACAUGAGGAUCACCCAUGUGAGAAGAGGCGAGGAUAUCGAAAGAAAGAAGAGAAACGAGAAGGCGCGAGUU [salish99-SS1-035] | – | – | 41.6 | 27.2
12 | AAUUCCACUAGCAAGGAUAUCUAAAACGAAACAUGAGGAUCACCCAUGUGACGACCACACGUAUCAGAGAAGGUGCAGGGUGAAU [JR_SS002_Sub307] | – | – | 31.9 | 20.5
13 | AAAAAACAUGAGGAUCACCCAUGUCAAAAGACGUGAGGAUAUGUACAGACUUCGGUCUGUACAGAAGGCACAAAAA [SS1 - 1031] | – | – | 40.3 | 17.2
14 | AGAAAACAUGAGGAUCACCCAUGUAGAAAUAUGGGAGGAUAUACAAAGACGAAAGUCAAAGUAGAAGGCCUGAAGA [Mat - Same State 1 - JL mod - D92] | – | – | 75 | 20.4
15 | AGAAAUAAAAGGGAGGAUAUUCAAAAAGGGACAUGAGGAUCACCCAUGUAAAAGAAAAUAAAAUGGGAGAAGGCUCAAAAUAAAG [80%, More Helter Skelter 2] | – | – | 748 | 1130
16 | AACUAACAUGAGGAUCACCCAUGUUACAGCAGUUGAGGAUAUGUGGGUGAAAAUAGCACGGCAGAAGGCGAGUGUA [SameState1 Malc#23] | – | – | 150 | 237
17 | GUAGACAUAGUUCAGGAUAUAUGAAUAGUCACAUGAGGAUCACCCAUGUCCAUUUAUAUGGGCACAUAGAAGGGAGGUAGUUAAC [Mat - Same state - Malcolm Mod - D123] | – | – | 1140 | 891
18 | GCGGUGCAGGUACAGGAUAUGUUGCUCGUAACAUGAGGAUCACCCAUGUACCUAUGAGAUUAAAUGCAGAAGGGUGCACACCACG [Oneratle] | – | – | 574 | 47.2
19 | AUAAAACAUGAGGAUCACCCAUGUAGAAAUAUGGGAGGAUAUACUAGAUCGAAAGAUCUAGUAGAAGGCCUCAAAG [JL Mod of Eli 2] | – | – | 58.9 | 58.8
20 | AAGAAACAUGAGGAUCACCCAUGUACCCAAAAGGGAGGAUAUGCGAAAGAAAGAAAGAAAGCAGAAGGCCCAUGAA [Artaxerxes I Longhand] | – | – | 25.3 | 13.9

Row | Sequence | apparent KD of MS2 coat protein (MS2 coat protein [1]; input ligand: FMN 200 uM) [nM] | apparent KD of MS2 coat protein (MS2 coat protein [1]; input ligand: none) [nM] | apparent KD of MS2 coat protein (MS2 coat protein [2]) [nM] | apparent KD of MS2 coat protein (MS2 coat protein [3]) [nM]
21 | AUGAAUAGCCUCGAGGAUAUCCAGUCAUGCACAUGAGGAUCACCCAUGUAAGAGAGAGUAUAAUGGGAGAAGGCGAGUUCUCGGU [JR_SS002_Sub1705] | – | – | 72.2 | 50.5
22 | AGAUCUAGAAGGUAGGAUAUGUGAAAAAAUACAUGAGGAUCACCCAUGUGAUGAAUAAAAAGAAAAUAGAAGGACCAUCUAGAUC [Cross swing 2] | – | – | 40.7 | 16.5
23 | UAUUAUUACACGAAGGAUAUCGAUAAUAGUACAUGAGGAUCACCCAUGUUCAAAUCAUUUUAGUACGAGAAGGUCGAGGGUAAAG [JR_SS002_Sub710] | – | – | 23.4 | 19.4
24 | AAAAGACAUGAGGAUCACCCAUGUAAAGACAUAGGAGGAUAUGUCAUGAAAAAAGACUUGACAGAAGGCCUUUGUC [SS1 - 50] | – | – | 20.4 | 20.4
25 | GAUAGACAUGAGGAUCACCCAUGUAGAAUUAUGGGAGGAUAUACAAAGACGAGAGUCAGAGUAGAAGGCCUAGGAA [salish99-ss1-156] | – | – | 64.6 | 24.5
26 | AAGAAAGAAACAUAGGAUAUCAAGGAUAUAACAUGAGGAUCACCCAUGUAAAUACGAAAGUAUAAUGAGAAGGAUGGAUGAUCUAC [Meechl MS2 SS2 3] | – | – | 79.5 | 200
27 | GGAAAUAAAAGAGAGGAUAUCCAAAGGAAAACAUGAGGAUCACCCAUGUAAAAGGAAGGAAACUGGGAGAAGGCUCAAAAUAAGG [salish99-ss2-010] | – | – | 32.2 | 18.7
28 | AACGAACAUGAGGAUCACCCAUGUUCCAACAGUUGAGGAUAUGUGGGUGAAAAUAGCACGGCAGAAGGCGAGUGUA [SameState1 Malc#21] | – | – | 49.8 | 70.2
29 | AAGAAACAUGAGGAUCACCCAUGUAGAAAUAUGGGAGGAUAUACGAAGACGAAAGUCAAAGUAGAAGGCCUAAAGA [Mat - Same State 1 - Eli mod - D106] | – | – | 61.5 | 20.3
30 | GGGAAGAAGAGAGAGGAUAUCCAAAGGAAAACAUGAGGAUCACCCAUGUAAAAGGUAGGAAAUUGGGAGAAGGCUCAAAAGAGAG [salish99-ss2-034] | – | – | 40.8 | 20.6
31 | GAAAAACAUGAGGAUCACCCAUGUAGAAAUAUGGGAGGAUAUACAAAGACGAAAGUCAAAGUAGAAGGCUCAAAAG [Starry Same State 1.2 (mat747 round 1 mod)] | – | – | 164 | 28.3
32 | AGAAAUAAAAGAGAGGAUAUUCAAAAGAAAACAUGAGGAUCACCCAUGUAAAAGAAAAUAAAUGGGAAGAAGGCUCAAAAUAAAG [Modifying JL's highscorer - Moving the G segment - Variant 2] | – | – | 26.2 | 24.8
33 | AAAACACAUGAGGAUCACCCAUGUAAAAACAUGGGAGGAUAUGCUUGGAAAACAUGCUAUGCAGAAGGCUCAAGUG [SS1 - 12] | – | – | 46.4 | 72.6
34 | AAAGAAUGAAGGCAGGAUAUGUGAAAAAAAACAUGAGGAUCACCCAUGUAAUAAAUGGGUACAAAACAGAAGGGCCAAGAAAUAA [SS 2 Tesla 2] | – | – | 398 | 170
35 | AGGAAACAUGAGGAUCACCCAUGUAAAAAUAUGGGAGGAUAUACGAAAAAAAAAAAAAAAGUAGAAGGCCUAAAAG [Garnet 10] | – | – | 231 | 101
36 | AAUAAGACUAGCAAGGAUAUCGAAAACGAGACAUGAGGAUCACCCAUGUAACAAGUAAAAGUAAACGAGAAGGUGCAGGGUGAAA [JR_SS002_Sub301] | – | – | 80 | 56.9
37 | AAAAAACAUGAGGAUCACCCAUGUAGAAACAUGGGAGGAUAUACAAAGACGAAAGUCAAAGUAGAAGGCCUAAAAG [Mat - Same State 1 - Mod - D158] | – | – | 69.2 | 224
38 | GAAAAACAUGAGGAUCACCCAUGUAGAAAUAUGGGAGGAUAUACGAAGACGAAAGUCGAAGUAGAAGGCCUAAAAG [Mat - Same State 1 - Eli mod - D24] | – | – | 84.9 | 27
39 | AAAAAACAUGAGGAUCACCCAUGUGGGAAUAUGGAAGGAUAUACAAAGACGAAAGUCAAAGUAGAAGGUCUAAAAG [76%, Meechl 2] | – | – | 41.9 | 39.6
40 | AGAAAUAAACCUCAGGAUAUGGGUAAAUAAACAUGAGGAUCACCCAUGUAAAAGAAAAUAAAAAACCAGAAGGGAGAAAAUAAGA [Designing denovo 1] | – | – | 24.1 | 10.4
